Measurements: US20240092898A1

B1: CD33-PP-1-WT (Fab, from another filing, V domains shown)
VH: EVQLVQSGAEVKKPGSSVKVSCKASGYTITDSNIHWVRQAPGQSLEWIGYIYPYNGGTDYNQKFKNRATLTVDNPTNTAYMELSSLRSEDTAFYYCVNGNPWLAYWGQGTLVTVSS
VL: DIQLTQSPSTLSASVGDRVTIICRASESLDNYGIRFLTWFQQKPGKAPKLLMYAASNQGSGVPSRFSGSGSGTEFTLTISSLQPDDFATYYCQQTKEVPWSFGQGTKLEIK
B2: CD7-PP-7 (Fab, V domains shown)
VH: QVQLQESGAELVKPGASVKLSCKASGYTFTSYWMHWVKQRPGQGLEWIGKINPSNGGTNYNEKFKSKATLTVDKSSSTAYMQLSSLTSEDSAVYYCARGGVYYDLYYAALDYWGQGTTVTVSS
VL: DIELTQSPATLSVTPGDSVSLSCRASQSISNNLHWYQQKSHESPRLLIKSASQSISGIPSRFSGSGSGTDFTLSINSVETEDFGMYFCQQSNSWPYTFGGGTKLEIKR

What was measured:
CD33 (human) = CD33 (human) (UniProt P20138); test: SPR
CD7 on cells (human) [1] = target: CD7 on cells (human) (UniProt P09564); test: flow cytometry on cells; cell line and unit not stated
CD7 on cells (human) [2] = target: CD7 on cells (human) (UniProt P09564); test: flow cytometry on cells; ratio to 7-PP-1 WT

Chain of CD7 on cells (human) (P09564 26-240): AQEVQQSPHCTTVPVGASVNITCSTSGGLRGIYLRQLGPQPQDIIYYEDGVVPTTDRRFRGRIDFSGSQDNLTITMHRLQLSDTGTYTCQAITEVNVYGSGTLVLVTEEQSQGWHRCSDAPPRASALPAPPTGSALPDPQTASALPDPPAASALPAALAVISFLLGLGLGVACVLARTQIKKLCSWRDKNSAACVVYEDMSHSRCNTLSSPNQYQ
Chain of CD33 (human) (P20138 18-259 limits assumed): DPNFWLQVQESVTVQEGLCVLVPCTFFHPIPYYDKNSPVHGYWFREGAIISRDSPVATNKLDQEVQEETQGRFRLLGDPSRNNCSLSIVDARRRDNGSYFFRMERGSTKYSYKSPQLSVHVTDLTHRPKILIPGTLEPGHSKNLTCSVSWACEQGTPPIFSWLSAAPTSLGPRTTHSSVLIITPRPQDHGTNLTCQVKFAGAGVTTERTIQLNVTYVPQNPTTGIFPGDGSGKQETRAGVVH

Binder | Kd (CD33 (human)) [nM] | FACS binding (CD7 on cells (human) [1]) | FACS fold reduction compared to PP WT (CD7 on cells (human) [2]) [fold]
B1 | 1.36 |  | 
B2 |  | 267 | 502
